Experimental data published in patent US6800738.

Legend:
[1] = target: p185^HER2 on cells (SK-BR-3 human breast tumor cells; WI-38 cells) (human, UniProt P04626 23-1255); test: cell-based or functional assay
[2] = target: T1, p185^HER2 ECD (secreted form of the extracellular domain of p185^HER2) (human, UniProt P04626 23-652); test: ratio of Kd values, solution equilibrium/ELISA
T1 construct: extracellular domain; also called HER2 extracellular domain

[3] = target: T1, p185^HER2 ECD (secreted form of the …); test: solution equilibrium with p185HER2 ECD, free antibody by ELISA on immobilized ECD (Friguet method)

B1: huMAb4D5-2 (antibody, name in Kabat numbering, V domains shown)
VH: EVQLVESGGGLVQPGGSLRLSCAASGFNIKDTYIHWVRQAPGKGLEWVARIYPTNGYTRYADSVKGRFTISADDSKNTLYLQMNSLRAEDTAVYYCARWGGDGFYAMDVWGQGTLVTVSS
VL: not shown
For B1, the “Relative cell proliferation of SK-BR-3 cells, 96 hr, 8 ug/ml antibody” value [1] was 101 % of untreated control, the “fold increase in affinity over huMAb4D5-1” value [2] was 5 fold and the Kd [3] was 4.7 nM.
